Experimental data: PMC11191771

Key:
[1] = target: PRC2.2 six-subunit complex WT (EZH2, SUZ12, EED, RBAP48, AEBP2, JARID2 119-450) (human, UniProt Q15910-2;Q15022;O75530;Q09028;Q6ZN18;Q92833 …); assay: EMSA; 100 mM KCl; EMSA: 50 mM Tris-HCl pH 7.5 (25 C), 100 mM KCl, 2.5 mM MgCl2, 0.1 mM ZnCl2, 2 mM 2-mercaptoethanol?; FP: 50 mM Tris pH 7.5, 10 or 25 mM KCl, 2.5 mM MgCl2, 0.1 mM ZnCl2, 0.1 mg/mL BSA?, room temperature, 5 nM RNA or DNA; settings: protein: recombinant, tags: His-EZH2, Strep-GFP-AEBP2, Strep-GFP-JARID2, TEV protease treated, copies: 1;1;1;1;1;1, label: 5' 32P (EMSA)
[2] = target: T1, PRC2.2 EZH2 R566Y K568Y Q575Y (3Y) (human, UniProt Q15910-2;Q15022;O75530;Q09028;Q6ZN18;Q92833 …, R566Y;K568Y;Q575Y); assay: EMSA; higher affinity than WT; EMSA: 50 mM Tris-HCl pH 7.5 (25 C), 100 mM KCl, 2.5 mM MgCl2, 0.1 mM ZnCl2, 2 mM 2-mercaptoethanol?; FP: 50 mM Tris pH 7.5, 10 or 25 mM KCl, 2.5 mM MgCl2, 0.1 mM ZnCl2, 0.1 mg/mL BSA?, room temperature, 5 nM RNA or DNA; settings: protein: recombinant; tags: as P1; copies: 1;1;1;1;1;1; label: 5' 32P (EMSA); single G-quadruplex
[3] = target: PRC2.2 EZH2 R566A K568A Q575A (human, UniProt Q15910-2;Q15022;O75530;Q09028;Q6ZN18;Q92833 …, R566A;K568A;Q575A); assay: EMSA; binding not affected vs WT; EMSA: 50 mM Tris-HCl pH 7.5 (25 C), 100 mM KCl, 2.5 mM MgCl2, 0.1 mM ZnCl2, 2 mM 2-mercaptoethanol?; FP: 50 mM Tris pH 7.5, 10 or 25 mM KCl, 2.5 mM MgCl2, 0.1 mM ZnCl2, 0.1 mg/mL BSA?, room temperature, 5 nM RNA or DNA; settings: protein: recombinant; tags: as P1; copies: 1;1;1;1;1;1; label: 5' 32P (EMSA); single G-quadruplex
PRC2.2 EZH2 del353-362 = PRC2.2 EZH2 del353-362 (human, UniProt Q15910-2;Q15022;O75530;Q09028;Q6ZN18;Q92833 …, internal_change); assay: EMSA; no obvious reduction vs WT; EMSA: 50 mM Tris-HCl pH 7.5 (25 C), 100 mM KCl, 2.5 mM MgCl2, 0.1 mM ZnCl2, 2 mM 2-mercaptoethanol?; FP: 50 mM Tris pH 7.5, 10 or 25 mM KCl, 2.5 mM MgCl2, 0.1 mM ZnCl2, 0.1 mg/mL BSA?, room temperature, 5 nM RNA or DNA; settings: protein: recombinant; tags: as P1; copies: 1;1;1;1;1;1; label: 5' 32P (EMSA); single G-quadruplex
[4] = target: T1, PRC2.2 EZH2 R566Y K568Y Q575Y (3Y); assay: FP; higher affinity than WT; Kd only in figure; EMSA: 50 mM Tris-HCl pH 7.5 (25 C), 100 mM KCl, 2.5 mM MgCl2, 0.1 mM ZnCl2, 2 mM 2-mercaptoethanol?; FP: 50 mM Tris pH 7.5, 10 or 25 mM KCl, 2.5 mM MgCl2, 0.1 mM ZnCl2, 0.1 mg/mL BSA?, room temperature, 5 nM RNA or DNA; settings: protein: recombinant; tags: as P1; copies: 1;1;1;1;1;1; label: fluorescent label; single G-quadruplex

Question: CAAAAACAAAAACAAAAACAAAAACAAAAAGGGAAGGGAAGGGAAGGGAA (structured_RNA) [1G4 RNA, no biotin] was tested. Which Kd ([1]; single G-quadruplex) did it give?
Answer: Its Kd is 0.12 µM.

Question: Does CAAAAACAAAAACAAAAACAAAAACAAAAAGGGAAGGGAAGGGAAGGGAA (structured_RNA) [1G4 RNA, no biotin] bind [2]?
Answer: Result: binds

Question: Does CAAAAACAAAAACAAAAACAAAAACAAAAAGGGAAGGGAAGGGAAGGGAA (structured_RNA) [1G4 RNA, no biotin] bind [3]?
Answer: Result: binds

Question: Does CAAAAACAAAAACAAAAACAAAAACAAAAAGGGAAGGGAAGGGAAGGGAA (structured_RNA) [1G4 RNA, no biotin] bind (PRC2.2 EZH2 del353-362)?
Answer: Result: binds

Question: Does CAAAAACAAAAACAAAAACAAAAACAAAAAGGGAAGGGAAGGGAAGGGAA (structured_RNA) [1G4 RNA (FP)] bind [4]?
Answer: Result: binds

B1: 2G4 RNA (structured_RNA)
RNA: CAAAAACAAAAACAAAAACAAAAACAAAAAGGGAAGGGAAGGGAAGGGAAACAACAACAACAACAGGGAAGGGAAGGGAAGGGAA
Question: B1 was tested. Which Kd ([1]; two G-quadruplexes) did it give?
Answer: Its Kd is 0.032 µM.
